Assay results: patent US10100120B2, “Antibody which specifically binds to human CRTH2” (KYOWA HAKKO KIRIN CO., LTD, priority 2015, dated 2018)

Experiments:
human CRTH2 = biological target: T1, human CRTH2 (Homo sapiens, UniProt Q9Y5Y4); assay: ELISA reactivity against membrane fractions of human CRTH2-expressing CHO/DG44 cells with GTPγS or GDP treatment; type: binding; conditions: HRP-labeled antibody, FIG. 19
T1 construct: expressed in transfected cells
T1 sequence (Q9Y5Y4 1-395): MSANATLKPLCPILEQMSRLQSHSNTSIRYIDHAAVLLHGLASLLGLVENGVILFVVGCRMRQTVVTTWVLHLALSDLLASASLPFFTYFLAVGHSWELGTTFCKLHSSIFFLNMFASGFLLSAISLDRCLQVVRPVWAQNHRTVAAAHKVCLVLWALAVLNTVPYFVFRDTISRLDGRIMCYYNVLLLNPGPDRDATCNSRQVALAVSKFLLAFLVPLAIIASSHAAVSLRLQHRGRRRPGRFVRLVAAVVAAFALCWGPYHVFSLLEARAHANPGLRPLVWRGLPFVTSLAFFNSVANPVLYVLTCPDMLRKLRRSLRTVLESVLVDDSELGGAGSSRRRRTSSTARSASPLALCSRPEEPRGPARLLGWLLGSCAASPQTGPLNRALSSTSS
Protocol: Humanized Lym2 antibody LV0HV1 and hu19A2 v52 were directly labeled with HRP using Peroxidase Labeling Kit-NH2 (Dojindo Molecular Technologies, Inc.) according to the attached document and diluted to 1 mg/mL with D-PBS (−) (NACALAI TESQUE, Inc.).
The human CRTH2-expressing CHO/DG44 cells established in Example 1 were peeled using 0.02% EDTA solution (NACALAI TESQUE, Inc.) and the cells were washed with D-PBS (−) cooled to 4° C. The membrane fractions were prepared using Minute Plasma Membrane Protein Isolation Kit (Invent Biotechnologies) according to the attached document.
50 mM Tris-HCl buffer pH 7.4 (NACALAI TESQUE, Inc.) to which 50 mM HEPES (GIBCO Inc.), 5 mM MgCl2 (NACALAI TESQUE, Inc.), 100 mM NaCl (NACALAI TESQUE, Inc.), and 1 mM EDTA (Invitrogen) were added (hereinafter, referred to as an ELISA reaction solution) was added to the membrane fractions prepared in (2) to have a concentration of 1 mg/mL, and the mixture was added to PROTEOSAVE 1.5 mL Microtubes (Sumitomo Bakelite Co., Ltd.) at 50 μL/tube.
Next, an ELISA reaction solution to which 500 μM GTPγS (Roche Diagnostics K.K.) or 500 μM GDP (Sigma-Aldrich Co. LLC) was added was added to the microtubes at 50 μL/tube for incubation at 30° C. for 1 hour. […]
The absorbance at 480 nm was measured by SPECTRA max 340PC and the obtained result was analyzed using Graphpad Prism (ver. 6.05). […]

cynomolgus monkey CRTH2 = assay: Binding activity against Azami-Green fusion cynomolgus monkey CRTH2-expressing CHO/DG44 cells; conditions: 2-30000 ng/mL, compared with human CRTH2; FIG. 21
Sequence of cynomolgus monkey CRTH2 (as listed by the source): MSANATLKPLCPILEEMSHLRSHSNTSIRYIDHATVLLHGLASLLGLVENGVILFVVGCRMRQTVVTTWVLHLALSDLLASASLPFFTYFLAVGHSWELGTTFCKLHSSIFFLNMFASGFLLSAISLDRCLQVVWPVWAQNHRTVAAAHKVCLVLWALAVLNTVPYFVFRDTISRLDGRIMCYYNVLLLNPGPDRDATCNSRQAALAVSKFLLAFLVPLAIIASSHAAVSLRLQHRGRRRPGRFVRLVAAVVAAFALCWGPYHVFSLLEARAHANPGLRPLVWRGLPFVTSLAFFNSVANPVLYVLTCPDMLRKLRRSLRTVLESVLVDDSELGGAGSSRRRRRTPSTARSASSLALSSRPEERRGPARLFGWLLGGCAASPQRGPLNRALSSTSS
Protocol: The Azami-Green fusion human CRTH2-expressing CHO/DG44 cells and the cynomolgus monkey CRTH2-expressing CHO/DG44 cells established in Example 24 were peeled using 0.02% EDTA solution (NACALAI TESQUE, Inc.), washed with PBS, and suspended with SM. Next, the cells were seeded in a 96-well plate such that each well had 2×10^5 cells, and humanized Lym2 antibody LV0HV1 or the anti-DNP IgG1 antibody at each of final concentrations 30000, 7500, 1875, 469, 117, 29, 7, and 2 ng/mL were added thereto to cause a reaction at 4° C. for 40 minutes.
After the cells were washed three times with SM, goat anti-Human IgG alexa 647 (Molecular Probes) diluted to a concentration of 10 μg/mL with SM was added thereto at 100 μL/well to perform a reaction at 4° C. for 40 minutes. The cells were washed with SM and resuspended with 100 μL of SM, and the fluorescent intensity was measured by flow cytometry (BD Biosciences, FACS CantoII).
The data was analyzed by FLowJo 7.65 (Tomy Digital Biology Co., Ltd.).

B1: LV0HV1: humanized Lym2 antibody, VL LV0 (SEQ ID NO: 33), VH HV1 (SEQ ID NO: 51) (antibody, V domains shown)
VH: EVQLVESGGGVVQPGRSLRLSCAASGFTFSNYYMAWVRQAPGKGLEWVATISYDGSSTYYRDSVKGRFTISRDNAKNSLYLQMNSLRAEDTATYYCARHRGYYYSGAGYFDYWGQGTMVTVSS
VL: DIVMTQTPLSLPVTPGESASISCRSSQSLEYSDGYTYLEWYLQKPGQSPQVLIYGVSNRFSGVPDRFSGSGSGTDFTLKISRVEAEDVGVYYCFQATHDPLTFGQGTKLEIK
reactivity with respect to membrane fractions at GDP treatment compared to GTPγS treatment (human CRTH2): not changed
binding activity against monkey CRTH2 (cynomolgus monkey CRTH2): substantially the same as each other
